Legend:
[1] = biological target: Cynomolgus monkey FcRn (cynomolgus monkey) (UniProt Q8SPV9); assay: SPR (BIAcore T200), antibody captured via anti-Fab, FcRn injected, pH 6, steady state
Human FcRn (human) = Human FcRn (human) (UniProt P55899); assay: as above
Human FcRn (human), sequence (P55899 24-297 limits assumed): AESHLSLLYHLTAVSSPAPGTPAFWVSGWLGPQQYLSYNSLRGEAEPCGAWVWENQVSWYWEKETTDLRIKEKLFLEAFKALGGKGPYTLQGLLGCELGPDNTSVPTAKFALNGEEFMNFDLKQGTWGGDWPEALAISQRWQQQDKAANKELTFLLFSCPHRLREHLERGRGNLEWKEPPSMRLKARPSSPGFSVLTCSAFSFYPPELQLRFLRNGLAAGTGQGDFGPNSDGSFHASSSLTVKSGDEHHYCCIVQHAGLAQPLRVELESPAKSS

Cynomolgus monkey FcRn (cynomolgus monkey), sequence (Q8SPV9 24-297 limits assumed): as the sequence (P55899 24-297 limits assumed) above, with N39D, E44Q, G99S, S189G, S190N, L217M, S269T counted along it

**Q.** Which results are given for Anti-gD.hIgG1 (antibody)?
**A.** Kd [1]: 900 nM; Kd (Human FcRn (human)): 700 nM

From patent US20210087288A1
